Test results as given in paper PMC3713477.
pKd: −log10 of the molar value.

System: 3E10 lupus anti-DNA autoantibody (mouse)
Test: EMSA
Details: 0-10 uM 3E10, 30 min at 4 C, buffer, salt and pH not given (ref 28)

Substance	pKd
duplex DNA with 5' single-stranded tail	6.70
single-stranded DNA	6.70
duplex DNA with splayed single-stranded ends	6.70
duplex DNA with 3' single-stranded tail	6.70
duplex DNA with internal bubble (heterology)	6.40
blunt-end duplex DNA	6.40
